Results on three substances are retold here after US20230047413A1.

In test [1] the target is PHF-tau (paired helical filament tau isolated from Alzheimer's disease brain) (human) (UniProt P10636). The test can be described thus: SPR ProteOn, PHF-tau.
In test [2] the target is tau seeds from cryopreserved human AD brain tissue (human) (UniProt P10636). The test can be described thus: cell-based or functional assay.
Test [3] has as its target tau seeds from GFP-tauP301L-overexpressing HEK cells (UniProt P10636). The test can be described thus: cell-based or functional assay.
The target of test [4] is tau seeds from spinal cords of P301S transgenic animals (human) (UniProt P10636). The test can be described thus: cell-based or functional assay.
tau seeds from spinal cords of P301S transgenic animals (human), sequence (P10636 other isoform, or with tags, fused parts or gaps P301S P301S): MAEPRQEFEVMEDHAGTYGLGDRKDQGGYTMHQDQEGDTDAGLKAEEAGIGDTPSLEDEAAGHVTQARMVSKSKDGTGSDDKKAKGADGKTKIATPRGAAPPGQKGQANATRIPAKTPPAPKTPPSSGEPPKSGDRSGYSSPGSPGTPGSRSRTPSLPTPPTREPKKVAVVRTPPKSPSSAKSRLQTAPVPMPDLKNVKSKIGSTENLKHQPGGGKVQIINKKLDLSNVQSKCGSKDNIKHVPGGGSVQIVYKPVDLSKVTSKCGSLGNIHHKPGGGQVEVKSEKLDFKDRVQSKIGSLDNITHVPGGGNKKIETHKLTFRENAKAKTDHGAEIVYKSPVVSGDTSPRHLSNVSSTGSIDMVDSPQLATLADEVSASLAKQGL
In test [5] the target is PHF-tau (paired helical filament tau isolated from Alzheimer's disease brain) (human) (UniProt P10636). The test can be described thus: SPR ProteOn, PHF-tau capture-coupled via HT7, bivalent model.
Test [6] deals with recombinant human wild-type tau (Example 1) (human) (UniProt P10636). In words: SPR Biacore, recombinant tau. On the technique in general: In SPR one partner is held on a chip, and binding of the other changes the refractive index at the surface.
recombinant human wild-type tau (Example 1) (human), sequence (P10636 other isoform, or with tags, fused parts or gaps limits assumed): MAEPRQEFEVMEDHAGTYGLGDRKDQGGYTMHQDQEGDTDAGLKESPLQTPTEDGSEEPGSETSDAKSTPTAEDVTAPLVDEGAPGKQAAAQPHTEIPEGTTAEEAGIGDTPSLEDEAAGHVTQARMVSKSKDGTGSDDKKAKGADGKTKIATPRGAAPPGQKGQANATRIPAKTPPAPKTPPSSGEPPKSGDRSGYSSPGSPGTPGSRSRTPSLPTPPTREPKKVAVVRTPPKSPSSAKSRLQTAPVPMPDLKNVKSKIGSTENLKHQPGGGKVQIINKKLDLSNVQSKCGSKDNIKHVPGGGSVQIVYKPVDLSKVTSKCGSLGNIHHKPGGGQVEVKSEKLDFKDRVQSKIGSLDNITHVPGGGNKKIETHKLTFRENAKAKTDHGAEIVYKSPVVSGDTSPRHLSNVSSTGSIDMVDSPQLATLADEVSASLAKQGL

PHF-tau (paired helical filament tau isolated from Alzheimer's disease brain) (human), sequence (P10636 other isoform, or with tags, fused parts or gaps limits assumed): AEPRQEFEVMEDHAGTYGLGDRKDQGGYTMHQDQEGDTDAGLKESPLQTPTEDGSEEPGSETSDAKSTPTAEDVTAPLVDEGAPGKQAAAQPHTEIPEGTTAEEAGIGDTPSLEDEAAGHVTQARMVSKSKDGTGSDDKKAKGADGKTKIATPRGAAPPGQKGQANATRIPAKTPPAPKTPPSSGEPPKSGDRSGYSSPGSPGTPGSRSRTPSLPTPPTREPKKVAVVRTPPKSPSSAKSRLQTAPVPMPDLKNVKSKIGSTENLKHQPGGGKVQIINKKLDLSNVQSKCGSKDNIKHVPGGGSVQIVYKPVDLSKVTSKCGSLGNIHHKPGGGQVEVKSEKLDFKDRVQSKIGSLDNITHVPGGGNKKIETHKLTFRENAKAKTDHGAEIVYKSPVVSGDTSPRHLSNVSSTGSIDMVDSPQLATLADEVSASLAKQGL

As usually defined, the koff is a measure of how fast the partners let go of each other. What is called kon is the rate constant with which the complex forms. In test [1], AT8 Fab yielded a Kd of 25.8 nM, a koff of 0.023 s⁻¹ and a kon of 889000 M⁻¹ s⁻¹.

In test [2], AT8 mAb (hyb) (antibody) showed an FRET/human AD brain homogenate immunodepletion assay, 300 nM antibody (% of negative control) of 80.7. Moreover, the inhibition of K18 aggregate induction, BRET/GFP-tauP301L co-incubation assay, 300 nM antibody (% of negative control) in test [3] is 10.5. Moreover, in test [4], the FRET/P301S spinal cord immunodepletion assay, 300 nM antibody (% of negative control) amounted to 96.7 and the inhibition of K18 aggregate induction, FRET/P301S spinal cord co-incubation assay, 300 nM antibody (% of negative control) was found to be 26.4. In test [1], the Kd amounted to 0.092 nM, the koff was determined as 0.000211 s⁻¹ and the kon is 2.3e+06 M⁻¹ s⁻¹.

On to HT7 (antibody), for which, in test [5], the Kd was found to be 0.193 nM, the dissociation rate constant (koff) amounted to 0.00011 s⁻¹ and the kon came out at 569000 M⁻¹ s⁻¹. The substance also registered an FRET/human AD brain homogenate immunodepletion assay, 300 nM antibody (% of negative control) in test [2] of 83. For the same substance, the inhibition of K18 aggregate induction, BRET/GFP-tauP301L co-incubation assay, 166.67 nM antibody (% of negative control) in test [3] stood at 65.4. In test [4], the FRET/P301S spinal cord immunodepletion assay, 300 nM antibody (% of negative control) came out at 99.2 and the inhibition of K18 aggregate induction, FRET/P301S spinal cord co-incubation assay, 89.99 nM antibody (% of negative control) is 73.5. Also, in test [6], the Kd came to 3.05 nM, the koff turned out to be 0.0118 s⁻¹ and the kon came to 3.86e+06 M⁻¹ s⁻¹. In test [1], this substance registered a Kd of 0.131 nM, a koff of 9.26e-05 s⁻¹ and an association rate constant (kon) of 706000 M⁻¹ s⁻¹.
